Blank lines part the entries; values can stand above or below the substance they belong to.
Key:
[1] = molecular target: human UHRF1 (hUHRF1), full-length, wild type (human) (UniProt Q96T88); test: MST; 50 nM His-tag-labelled (RED-tris-NTA) UHRF1 protein, H3 peptide titrated; 20 mM HEPES-NaOH pH 7.9, 150 mM NaCl, 0.05% Tween-20; room temperature; Monolith NT.115
[2] = molecular target: mUHRF1 V1 P-patch/R* (P293A/P294A/P295A/L297A/R298A), full-length (mouse) (UniProt Q8VDF2); test: as above
[3] = molecular target: mUHRF1 V1 R-S* (R298A/N299A/T300A/G301A/K302A/S303A), full-length (mouse) (UniProt Q8VDF2); test: as above
[4] = molecular target: mUHRF1 V1 R298* (R298A), full-length (mouse) (UniProt Q8VDF2); test: as above
[5] = molecular target: murine UHRF1 splicing variant 1 (mUHRF1 V1), full-length, wild type (mouse) (UniProt Q8VDF2); test: as above
[6] = molecular target: murine UHRF1 splicing variant 2 (mUHRF1 V2), full-length, wild type (mouse); test: as above
[7] = molecular target: FAM-H3(1-15)K9me3 peptide (N-terminally fluorescein-labelled); test: fluorescence polarisation; FAM-labelled H3(1-15) peptide, recombinant protein titrated; RT; as described (ref. 28)
[8] = molecular target: H3(1-15)K9me3-FAM peptide (C-terminally fluorescein-labelled); test: as above
[9] = molecular target: H3(1-15)unmodified-FAM peptide (C-terminally fluorescein-labelled); test: as above
[10] = molecular target: recombinant hUHRF1 (human) (UniProt Q96T88); test: MST; 50 nM 6× His-tagged protein labelled with RED-tris-NTA dye, peptide titrated; 20 mM HEPES–NaOH pH 7.9, 150 mM NaCl, 0.05% Tween-20; room temperature; also with 100-fold molar excess of 16:0 PI5P (Figure 3D)
[11] = molecular target: recombinant mUHRF1 V1 (mouse) (UniProt Q8VDF2); test: as above
[12] = molecular target: FAM-H3(1–15)K9me3 peptide; test: fluorescence polarisation; FAM-labelled H3(1–15) peptide, recombinant protein titrated; room temperature; as described in ref. 28
[13] = molecular target: H3(1–15)K9me3-FAM peptide; test: as above
[14] = molecular target: H3(1–15)unmodified-FAM peptide; test: as above

Chain of human UHRF1 (hUHRF1), full-length, wild type (human) (Q96T88 whole entry): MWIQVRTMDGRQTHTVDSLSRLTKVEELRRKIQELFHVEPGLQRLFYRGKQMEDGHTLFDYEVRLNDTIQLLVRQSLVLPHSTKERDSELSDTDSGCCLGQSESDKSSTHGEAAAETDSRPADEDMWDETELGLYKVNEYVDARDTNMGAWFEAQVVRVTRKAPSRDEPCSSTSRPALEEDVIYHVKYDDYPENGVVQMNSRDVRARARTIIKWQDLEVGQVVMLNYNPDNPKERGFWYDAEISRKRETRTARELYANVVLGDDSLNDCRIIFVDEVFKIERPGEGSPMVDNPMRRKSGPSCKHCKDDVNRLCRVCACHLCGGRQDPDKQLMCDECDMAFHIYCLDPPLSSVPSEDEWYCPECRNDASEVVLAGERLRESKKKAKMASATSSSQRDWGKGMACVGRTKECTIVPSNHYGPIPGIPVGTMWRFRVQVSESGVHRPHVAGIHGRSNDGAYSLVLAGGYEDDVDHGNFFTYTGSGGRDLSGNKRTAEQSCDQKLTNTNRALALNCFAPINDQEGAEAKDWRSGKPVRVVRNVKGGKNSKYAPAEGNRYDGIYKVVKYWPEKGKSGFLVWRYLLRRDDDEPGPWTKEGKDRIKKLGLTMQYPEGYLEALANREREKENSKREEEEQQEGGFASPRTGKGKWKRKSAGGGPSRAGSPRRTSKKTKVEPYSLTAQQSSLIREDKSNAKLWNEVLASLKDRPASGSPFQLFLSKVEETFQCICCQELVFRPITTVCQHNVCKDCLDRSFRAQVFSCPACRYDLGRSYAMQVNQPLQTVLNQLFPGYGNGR
Chain of murine UHRF1 splicing variant 1 (mUHRF1 V1), full-length, wild type (mouse) (Q8VDF2 whole entry, change not shown): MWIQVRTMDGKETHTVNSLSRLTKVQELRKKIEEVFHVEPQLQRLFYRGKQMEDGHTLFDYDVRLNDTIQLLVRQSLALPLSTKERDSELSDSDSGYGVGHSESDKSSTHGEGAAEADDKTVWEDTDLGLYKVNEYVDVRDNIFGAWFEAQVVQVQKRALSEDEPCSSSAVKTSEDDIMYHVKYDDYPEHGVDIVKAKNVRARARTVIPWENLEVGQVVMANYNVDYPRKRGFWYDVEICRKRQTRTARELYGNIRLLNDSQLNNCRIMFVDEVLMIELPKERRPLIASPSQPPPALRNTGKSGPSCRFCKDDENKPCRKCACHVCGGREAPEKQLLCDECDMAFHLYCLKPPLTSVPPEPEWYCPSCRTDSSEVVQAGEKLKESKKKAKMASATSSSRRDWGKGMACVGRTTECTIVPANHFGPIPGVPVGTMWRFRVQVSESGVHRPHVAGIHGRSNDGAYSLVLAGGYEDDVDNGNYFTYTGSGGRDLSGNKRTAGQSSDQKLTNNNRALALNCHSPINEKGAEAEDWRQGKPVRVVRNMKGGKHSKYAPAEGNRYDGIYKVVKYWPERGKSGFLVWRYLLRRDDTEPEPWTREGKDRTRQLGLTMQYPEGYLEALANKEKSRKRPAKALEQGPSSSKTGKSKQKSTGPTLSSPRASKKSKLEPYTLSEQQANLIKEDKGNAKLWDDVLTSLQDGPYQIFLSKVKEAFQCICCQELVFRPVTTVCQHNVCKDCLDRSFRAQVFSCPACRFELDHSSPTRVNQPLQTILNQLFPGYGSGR
Chain of mUHRF1 V1 P-patch/R* (P293A/P294A/P295A/L297A/R298A), full-length (mouse) (Q8VDF2 whole entry P293A/P294A/P295A/L297A/R298A): as the sequence (Q8VDF2 whole entry, change not shown) above, with P293A, P294A, P295A, L297A, R298A counted along it
Chain of mUHRF1 V1 R298* (R298A), full-length (mouse) (Q8VDF2 whole entry R298A): as the sequence (Q8VDF2 whole entry, change not shown) above, with R298A counted along it
Chain of mUHRF1 V1 R-S* (R298A/N299A/T300A/G301A/K302A/S303A), full-length (mouse) (Q8VDF2 whole entry R298A/N299A/T300A/G301A/K302A/S303A): as the sequence (Q8VDF2 whole entry, change not shown) above, with R298A, N299A, T300A, G301A, K302A, S303A counted along it
Chain of recombinant hUHRF1 (human) (Q96T88 whole entry): as the sequence (Q96T88 whole entry) above
Chain of recombinant mUHRF1 V1 (mouse) (Q8VDF2 whole entry): as the sequence (Q8VDF2 whole entry, change not shown) above

Substance: histone H3 N-terminal tail peptide, K9 trimethylated (MST)
Kd [1]: 1.5 µM
Kd [2]: 6.3 µM
Kd [3]: 6.2 µM
Kd [4]: 6.7 µM
Kd [5]: 1.4 µM
Kd [6]: 4.5 µM

Substance: isolated tandem tudor domain of murine UHRF1 (mTTD) (from UniProt Q8VDF2 1-782) (domain or fragment)
Kd [7]: 3.4 µM
Kd [8]: 2.7 µM

Substance: histone H3 N-terminal tail peptide, R2 symmetrically dimethylated and K9 trimethylated (MST)
Kd [1]: 16 µM
Kd [5]: 28 µM
Kd [6]: 14 µM

Substance: isolated tandem tudor domain of human UHRF1 (hTTD) (from UniProt Q96T88 1-793) (domain or fragment)
Kd [7]: 6.3 µM
Kd [8]: 4.9 µM

Substance: human UHRF1 (hUHRF1), full-length, wild type (from UniProt Q96T88-1 1-793) (natural protein)
Kd [8]: 7.7 µM
Kd [9]: 15 µM

Substance: H3R2me2sK9me3 peptide (titrated in MST)
fold weaker affinity against the H3K9me3 peptide [10]: 10 fold
fold reduction of binding against the H3K9me3 peptide [11]: 20 fold

Substance: histone H3 N-terminal tail peptide, unmodified (MST)
Kd [1]: 2.5 µM
Kd [2]: 4.1 µM
Kd [3]: 5.1 µM
Kd [4]: 4.6 µM
Kd [5]: 5.3 µM
Kd [6]: 5.8 µM

Substance: mTTD-PHD V2 (domain or fragment)
Kd [12]: 12.3 µM

Substance: mTTD-PHD V2 module (mUHRF1 V2 122-372) (domain or fragment)
Kd [8]: 14.4 µM
Kd [9]: 10.5 µM

Substance: mTTD-PHD V1 (domain or fragment)
Kd [12]: > 300 µM
Kd [13]: 4.9 µM
Kd [14]: 14.3 µM

Continued, values first:

Kd [8]: 6.4 µM
Kd [9]: 12.7 µM
Substance: murine UHRF1 splicing variant 1 (mUHRF1 V1), full-length, wild type (from UniProt Q8VDF2 1-782) (natural protein)

Kd [8]: 2.6 µM
Kd [9]: 2.4 µM
Substance: hTTD-PHD module of human UHRF1, wild type (from UniProt Q96T88 1-793) (domain or fragment)

Kd [7]: > 50 µM
Kd [8]: 19.8 µM
Kd [9]: 14.8 µM
Substance: murine UHRF1 splicing variant 2 (mUHRF1 V2), full-length, wild type (natural protein)

Kd [8]: 21.4 µM
Kd [9]: 19.5 µM
Substance: mTTD-PHD V1 TTD* (Y184A/Y187A, aromatic cage mutant) (from UniProt Q8VDF2-1 122-380) (domain or fragment)

— article PMC7430637
